# In the nanobody polyreactivity screen of Harvey et al. (2022):
# Assay: yeast display, Sf9 membrane polyspecificity reagent, FACS + sequencing; frameworks hold sequencing errors
# How it was run: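 After 36–48 hours of galactose induction, yeast (Saccharomyces cerevisiae BJ5465) displaying a synthetic nanobody library were stained at 4 °C for 1 hour with 10% biotinylated, detergent-solubilized Sf9 membrane reagent. Streptavidin microbeads enriched the stained cells before FACS sorting into low and high (top ~1%) gates on anti-HA and streptavidin fluorescence. Each clone's polyreactivity label reflects its gate of origin.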
row,Sequence,polyreactivity (PSR sort gate)
1,QVQLVESCGGLVQAGGSLRLRCAASRSIFDSYAMGWYRQAPGKERELVASISYRGGSTYYADSVKGRFTISRDIAKNTVYLQMNSLKPEDTAVYYCAATPGYHYRSWRYYYWGQGNQVTVSS,high polyreactivity
2,QVQLVESCGGLVQAGGSLRLSCAASGFTFYYYVMGWYRQAPGQERELVAAISRSGGNTYYADSVKGRFTISRDNAKNTVYLQMNRLKPEDTAVYYCNAVQYYPVYYWGQGTQVTVSS,high polyreactivity
3,QVQLVESCGGLVQAGGSLRLSCAASGITFGSYAMGWYRQAPGKERELVAAITTGTSTNYADSVKGRFTISRDNAKNTVYLQMNSLKPEDTAVYYCNAEKYNFIYAYEYWGQGTQVTVSS,low polyreactivity
4,QVQLVESCGGLVQAGGSLRLSCAASGLIIRWYAMGWYRQAPGKERELVAAITRAGSTYYADSVKWRFTISRDNAKNTVYLQMNSLNPEDTAVYYCAADTNWSPGYIMYYRSDYWGQGTQVTVSS,low polyreactivity
5,QVQLVESCGGLVQAGGSLRLSCAASGLTLGDNAMGLYRQAPGKERELVAAITSGSSTDYADSVKGRFTISRDNAKNTVYLQMNSLKPEDTAVYYCAKRIYRYQYRPENYWGQGTQVTVSS,low polyreactivity
6,QVQLVESCGGLVQAGGSLRLSCAASGRIFLVYAMGWYRQAPGKERELVAAISWSTGSTYYADSVKGRFTISRDNAKNTVYLQMNSLKPEDTAVYYCAAEPELDEFEHDYWGQGTQVTVSS,low polyreactivity
7,QVQLVESCGGLVQAGGSLRLSCAASGRIIRKYDMGWYRQAPGKERELVAAISGTGITYYADSVKGRFTISRDNAKNTVYLQMNSLKPEDTAVYYCARGSKPRAWSWAYPSATSIYDYLGQGTQVTVSS,low polyreactivity
8,QVQLVESCGGLVQAGGSLRLSCAASGRTFNSYAIGWYRNAPGKERELVAAISWIGGSTYYADSVKGRFTISRDNAKNTVYLQMNSLKPEDTAVYYCAADSYRFYSGYYYWGQGTQVTVSS,low polyreactivity
9,QVQLVESCGGLVQAGGSLRLSCAASGSIFGDYVMGWYRQAPGKERELVAAINRGGSTYYADSVKGRFTISRDNAKNTVYLQMNSLKPEDTAVYYCAAGYPSWYYGYPYDSWGQGTQVTVSS,low polyreactivity
10,QVQLVESCGGLVQAGGSLRLSCAASGSIFSGYAMGWYRQAPWKERELVAAITWRAASTYYADSVTGRFTISRDNAMNTVYLQMNSLKPEDTAVYYCAKEGWPKPAFYYCGQGTQVTVSS,low polyreactivity
11,QVQLVESCGGLVQAGGSLRLSCAASGSIFSRNTMGWYRQAPCKERELVAGISSSGSRTYYADSVKGRFTISRDNSKNTVYLQMNSLKPEYTAVYYCAAEHQRSRGRRYYIGYDYWGQGTQVTVSS,low polyreactivity
12,QVQLVESCGGLVQAGGSLRLSCAASGSTFSLYGMGWYRQAPAKERELVATITYSGGRTYYADSVKGRFTISLDNAKNTVYLQLNSLKPEDTAVYYCAARLAPLYRTYYYWGQGTQVTVSS,low polyreactivity
13,QVQLVESCGGLVQAGGSLRLSCAASGSTFVYNSMGWYRQAPGKEREMVDAITWRGSTYYADSVKGRFTISRDNAKNTVYLQMNSLKPEDTAVYYCAARFSNLPEGVTYYYWGQGTQVTVSS,high polyreactivity
14,QVQLVESCGGLVQAGGSLRLSCAASGYTFSFNAMGWYRQAPGKESELVADINLSGGYTYYADSVKGRFTISRDNAKNTVYLQINSLKPEDTAVYYCAADLYDYWTEGYAFLFEYWGQGTQVTVSS,low polyreactivity
15,QVQLVESCGGLVQARGSLRLSCAACGRIFIRYALGWYSQAPGTERELVAAITRGGSTYYADSVKGRFTISRDNAKITVFLQMNSVKPEDTAVYYCAGRVGYPYYYWGQGTEVTVSS,high polyreactivity
16,QVQLVESCLGLVQAGGSLRLSFADSGIIIMFYSMGWYRQATGKERELLAAISASGGRTYYADSVKGRFTISRDNAKNTVYLQMNSLKPEDTAVYYCARLLPTPGKPILDYWGQGTQVTVSS,low polyreactivity
17,QVQLVESDGGLVQAGGSHPLSSAASGRIIYRYTMGWYRQAPGKERELVAAIRYRTSSTYYADSVKGRFTISRDNAKNTVYLQMNSLKPEDTAVYYCAAYDGLRPHRMDYWGQGTQVTVSS,low polyreactivity
18,QVQLVESEGGLVQAGGSLRISCAASGRNFRTYDMGWYRQAPGKERELVAAISEEGGYTYYADSVKGRFTISRDNAKNTVYLQMNSLKPEDTAVYYCAKDRPGPLRWWFLYGYWGQGTQVTVSS,low polyreactivity
19,QVQLVESGAALVQAGGSLRISCAASGSTLDTNAMGRYRPAPGKERELVAAITFSGGTTYYADSVKGRFTISRDNAKNTVYLQMNSLKPEDTAVYYCAAEIWLEYVGYDYWGQGTQVTVSS,high polyreactivity
20,QVQLVESGAGIVQAGGSLRVSSAASGSIFHSYAMGWYRQEPGKERELVAGITYRTGSTYYADSVKGRVTNSRDNAKNTVYFQMNSLKPEDTAVYYCAAGYYSRYFEAFEYYYWGLGTQVTVSS,high polyreactivity
21,QVQLVESGAGLGQAGGSLRLSCAASGYTFPSNAMGWYRQAPGKERELVAAISSGGRTNYADSVKGRFTISRDNAKNTVYLQMNSLKPEVTAVYYCNADGGPGYPRAYDYWGPGTQVTVSS,low polyreactivity
22,QVQLVESGAGLLHAGRSLRLSCPASGRIFRGNAMGCYRQAPGKERELVASISTSGVRTFYADSVKGRFTISRDNAKNTFYLQMNSLKHEDTAVYYCNKRDRYRLYGYNYCGQGTQVTVSS,high polyreactivity

row,Sequence,polyreactivity (PSR sort gate)
1,QVQLVESGAGLVHAGGSLRLSCAASGLIYVNAMGWYRQAPGKERDFVAAITYSTGSTYYADSVKGRYTISRDNAKNTVYLQMNSLKPEDSAVYYCATDEHSSGRTPYDYWVQGTQVTVSS,low polyreactivity
2,QVQLVESGAGLVKAGCSLRISCAASGSSFVTYDMGWYRQAPGKERELVAGISGSGSTNYADSVKGRFTISRDNAKNTVYLQMNSLKPEDTAVYYSAAEYEYLWSQYLTDYGYDYWGQGTQVTVSS,low polyreactivity
3,QVQLVESGAGLVQAAASLRLSCAASGRTFIYYSMGWYRQAPGKEREFVAIISWNGTSTNYADSVKGRFTISRDNAKNTVYLQMNSLKPEDTAVYYCAASFWTDYYRYDYWGQGTQVTVSS,low polyreactivity
4,QVQLVESGAGLVQAGGILRLSCAASGLTFSRYTMGWSRQAPGKERELVAAITSSGGSTYYADSVKGRFTISRDNAKNTVSLEMNSLKPEDTAVNYCAARYPGTRGDGYWGLGTQVTVSS,high polyreactivity
5,QVQLVESGAGLVQAGGRLRLSCAASGSIFWRYAMGWSIQAPGKERELVAAINYSTTRTYYADSVKGRFTISRDNAKNTVYLQMNSLKPVDTAVYYCAADSRVDEGEYWGQGTQVTVSS,high polyreactivity
6,QVQLVESGAGLVQAGGRLRLSCAASGSTFGYYAMGLYTQAPGTERELVAVITTRVGSTYYADSVKGRFTISRDNAKNTVYLQMNSLKPEDTAVYYCNASGRTRSYSGSFSKHYYWGQGTKVTVSS,high polyreactivity
7,QVQLVESGAGLVQAGGSLLLSCAASGYIFDVYDMGWYRQAPGKERELVAAITDYADSVKGRFTISRDNAKNTVYLQMNSQKPEDTAVYYCAADTDVLKGTTGFEYWGQGTQVTVSS,low polyreactivity
8,QVQLVESGAGLVQAGGSLPLSCAASGFTFTIYAMGWYRQAPGKERELVATISGRAGRTYYADSVKGRFTISRDNAKNTVYLQMNSMKPEDTAGYYCNAGQWRYTGLYYYWGQGTQVTVSS,high polyreactivity
9,QVQLVESGAGLVQAGGSLRFSCAASGSIFDHYVMGWYRQAPGKEREFVAAIPSGDRTNYADSVKGRFTISRDNANNTVYLQMNSLKPEDTAVYYCNADYQYYFYYTTCYYDYDYWGQGTPVTVSS,low polyreactivity
10,QVQLVESGAGLVQAGGSLRLICAASGSTFVKNVMGCYRQAPGKERELVAGITRGGSTYYADSVKGRFTISRDHAKNSVYLQMNSLYPDDTAVYYWAKRYAWELDYWGQGSQVTVSS,high polyreactivity
11,QVQLVESGAGLVQAGGSLRLICAATGFTLGSNAMGSYRKAPGKERELVAAISKSGGSTYYADSVKGRFTISRDNAKNTVYLQMNSLKPDDTAVYYCAARYLYQGYRYDYWGQGTQVTVSS,high polyreactivity
12,QVQLVESGAGLVQAGGSLRLSCAASGFNFRENAMGWYRQAPGKERELVAAISRSGGSTYYADSVKGRFTISRDNAKNTVYLQMNSLKPEDTAVYYCAAPKDYDYWGQGTKVTVSS,low polyreactivity
13,QVQLVESGAGLVQAGGSLRLSCAASGFTFYPYAMGLYRQAPGKERELVAAINSGGSTYYADSVKGRFTISRDNAKNTVYLQMNSLKPEDTAVYYCAAYGKRGAVAFYYWGQGTQVTVSS,high polyreactivity
14,QVQLVESGAGLVQAGGSLRLSCAASGLTFALYAMGGYRQAPGKERELVAAIDWSGGITYYADSVKGRFTISRDNAKNTVYLQLNSLKPEDTAVYYCAARPSTFKYKYGYWGQGTQVTVSS,high polyreactivity
15,QVQLVESGAGLVQAGGSLRLSCAASGLTFDYYAMGWYRQAPGKEREFVAAITRRGGGTYYADSVKGRFTISRDNAKNTVYLQMNSLKPEDTAVYYCAAYGCGNRWYSRFDYWGQGTQVTVSS,high polyreactivity
16,QVQLVESGAGLVQAGGSLRLSCAASGRIFGYYAMGWYRQAPGKERELVAAITRGGSTYYADSVKGRFTISRDNAKHTVYLQMNSLKPEDTAVYFCAANISGLVKYENDYWGQGTQLTVSS,low polyreactivity
17,QVQLVESGAGLVQAGGSLRLSCAASGRIFRVYAMGWYRQAPGQERELVAAITSGGTTYADSVKGRLTISRDNAKKTVYLQMNILKPEDTAVYYCAARYYIHRGYDYDYWGQGTQVTVSS,high polyreactivity
18,QVQLVESGAGLVQAGGSLRLSCAASGRNFWYYAMGLYRQAPGKERELVAGITYGDGSTYYADSVKGRFTISRDNAKNTVYLQMNSLKPEDTAVYYCAVDLRSYWFRYGFDYWGQGTQVTVSS,low polyreactivity
19,QVQLVESGAGLVQAGGSLRLSCAASGRTFDKYAMGWYRQAPGKDRELVAAISGSGGRTYYADSVKGSFTISRDIAKNTVYLQMNSLKPEDTAFYYCAGDTGSYTYYYWGKGTQVTVSS,high polyreactivity
20,QVQLVESGAGLVQAGGSLRLSCAASGRTFHGYAMGWYRQAPRKERELLARINWSDGRTYYADSVKGRFTISRDNAKNTVFLQMNSLKPEDTAVYYCAADKTVSYAPAWYYYWGQGTQVTVSS,low polyreactivity
21,QVQLVESGAGLVQAGGSLRLSCAASGRTFWVYSMGWSRQAPGKESELVAAFRRGGITNYADSVKGRFTISRDNAKITVYLQMNCLNPEDTAVYYCATENYGYLTRYYYWGPGTQVTVSS,low polyreactivity
